Test [1] addresses DENV-4 E protein Domain III (Dengue virus serotype 4, strain Indonesia/1036/1976). Kind of test: BLI, mAb on AR2G biosensor, 20 ug/mL Domain III, 1200 sec. Background: Biolayer interferometry detects binding as a change in optical thickness at a sensor tip.
The target in test [2] is DENV-2 VLP (Dengue virus serotype 2, strain Thailand/16681/84). Kind of test: Luminex, VLP-coupled beads.
The target is the same in test [3].
The target of test [4] is DENV-2 E protein Domain III (Dengue virus serotype 2, strain Thailand/16681/1984). The test can be described thus: BLI, mAb on AR2G biosensor, 20 ug/mL Domain III, 1200 sec.

A word on the EC50: it is the concentration needed to bring the measured effect to its halfway point. Higher therefore signals weaker potency. A word on the koff: it is the first-order rate constant of dissociation.

B1: DENV4-7F2 (antibody, V domains shown)
VH: QSVEESGGRLVTPGTPLTLTCTVSGIDLSYYAMGWVRQAPGEGLECIGFIDTGDSAYYASWAKGRFTISKTSSTTVDLKITSPTPEDTATYFCGRSLSSYYDWDAFDPWGPGTLVTVSS
VL: AYDMTQTPASVEVAVGGTVTINCQASQTIGNLLAWYQQKPGQRPKLLIYRASTLASGVPSRFKGSGSGTQFTLTISGVECADAATYYCQQGASANDIDNSFGGGTAVVVK
For B1, the Response (nm) in test [1] is -0.005 nm.

B2: DENV4-10A11 (antibody, V domains shown)
VH: QSVEESGGRLVTPGTPLTLTCTVSGINLSFYAMGWVRQAPGKGLECVGFIDTDNSAYYASWAKGRFTISKTSTTVDLKITSPTTEDTATYFCARSLSSFYDWDAFDPWGPGTLVTVSS
VL: AYDMTQTPASVEVAVGGTVTIKCLASQSISNLLAWYQQKPGQRPKLLIYRASTLASGVPSRFKGSGSGTQFTLTISGVECADAATYYCQQGASNSDIDNAFGGGTEVVVK
As for B2, the Response (nm) in test [1] turned out to be 0.012 nm.

B3: DENV4-7D5 (antibody, V domains shown)
VH: QSVEESGGRLVTPGTPLTLTCTVSGIDLSSWEMGWVRQAPGKGLEWIGIIFPSGTIYYANWAKGRFAISKASTTVDLKITSPTTEDTATYFCGRHGGSLYLNIWGPGTLVTVSL
VL: AQVLTQTPSPVSAAVGGTVTINCQASQSVYVNRNLAWYQQKPGQPPKVLIYEASKLASGVPSRFKGSGSGTQFTLTISGVQCDDAATYYCQGEFGCSSADCIAFGGGTEVVVK
On to B3, for which the Response (nm) in test [1] was -0.007 nm.

B4: DENV4-8C7 (antibody, V domains shown)
VH: QSVEESGGRLVTPGTPLTLTCTVSGIDLSSYEMGWVRQAPGKGLEWIGIIFPSGTIYYANWAKGRFTISKTSTTVDLKITSPTTEDTATYFCGRHGGSLYLNIWGPGTLVTVSL
VL: AQVLTQTPSPVSAAVGGTVTINCQASQSVYVNRNLAWYQQKPGQPPKVLIYEASKLASGVPSRFKGSGSGTQFTLTISGVQCDDAATYYCQGEFGCSSADCIAFGGGTEVVVK
B4: the Response (nm) in test [1] was -0.014 nm.

B5: DENV2-3H11 (antibody, V domains shown)
VH: QSVEESGGRLVTPGTPLTLTCTVSGFSLINYDMSWIRQAPGKGLEWIGMVSGGGHTNYASWANGRFTISKTSSTTMDLKITSPTTEDTASYFCGRWDIWGPGTLVTVSL
VL: AVVVTQTASPVSAAVGGTVTISCQSSQSVYDDNWLAWYQQKPGQPPKQLIYRASRLASGVPSRFSGTGSGTQFTLTISGVQCDDAATYYCLGGYVDDGDTTFGGGTEVVVK
The molecule B5 came in with an EC50 in test [2] of 0.0354 µg/mL. For the same molecule, the Response (nm) in test [3] is 2.02 nm; in test [4] it was -0.00452 nm. In test [3], this molecule returned a koff of under 2e-05 s⁻¹.

B6: DENV4-5B11 (antibody, V domains shown)
VH: QSVEESGGRLVTPGTPLTLTCTVSGFSLSDSAMSWVRQAPGKGLEWIGYIYAGSGTTYYASWAKGRFTISKTSTTVDLKITSPTTEDTATYFCARATAYVGYGYGDDTFDPWGPGTLVTVSS
VL: AYDMTQTPASVEVAVGGTVTIKCQASQSISSYLSWYQQKPGQRPKLLIYRASTLASGVSSRFKGSGSGTEFTLTISGVQCDDAATYYCQQGYSNSDVDNVFGGGTEVVVK
Consider B6, for which the Response (nm) in test [1] was 0.02 nm.

B7: DENV4-7G4 (antibody, V domains shown)
VH: QSVEESGGRLVTPGTPLTLTCTVSGFSLSSCAMTWVRQAPGKGLEWIGYIYVDSDTTYYASWAKGRFTISTTSTTVDLRITSPTTEDTATYFCARTTAYVGGGYGDDTFDPWGPGTLVTVSS
VL: DVVMTQTPASVEAAVGGTVTINCQASQNINSYLSWYQQKPGQRPKLLIYRAFTLASGVSSRFKGSGSGTQFTLTISGVECADAATYYCQQGYSFSGVDNVFGGGTEVVVK
Regarding B7, in test [1], the Response (nm) is -0.001 nm.

B8: DENV2-8D8 (antibody, V domains shown)
VH: QSLEESGGRLVKPDETLTLTCTVSGIDLSSTIITWVRQAPGKGLEYIGIIGSSGSIISANWAKGRFTISRTSTTVDLKMTSLTTEDTATYFCARIAWSTGRNDIWGPGTLVTVSS
VL: AAVLTQTPPSVSAAVGGTVTISCQSSQSVYNNNALSWYQQKPGQPPKLLIYLASNLASGVPSRFSGSGSGTQFTLTISGVQCDDAATYHCLGVDDDDVDNTFGGGTEVVVK
In test [2], B8 showed an EC50 of 0.011 µg/mL. Also, in test [3], the Response (nm) came to 0.756 nm and the koff is under 2e-05 s⁻¹. In test [4], the Response (nm) stood at 0.0246 nm.

B9: DENV2-5F4 (antibody, V domains shown)
VH: QSVEESGGRLVKPDETLTLTCTVSGIDLSNTVISWVRQAPGKGLEYIGMITPSGSAYSATWAKGRVTISRTSTTVDLKIASPTTEDTATYFCARIAWSTGRNDIWGPGTLVTVSS
VL: AAVLTQTPPSVSAAVGGTVTIKCQSSQSVYNNNALSWYQQKPGQPPKLLIYQASKLSSGVSSRFSGSGSGTHFTLTISGVQCDDAATYYCLGIYDDDVDNTFGGGTEVVVG
In test [2], B9 returned an EC50 of 0.0095 µg/mL. Moreover, in test [3], the Response (nm) turned out to be 1.5 nm and the koff was under 2e-05 s⁻¹. The Response (nm) in test [4] stood at 0.0206 nm.

B10: DENV4-9G8 (antibody, V domains shown)
VH: QSLEESGGGLVKPGASLTLTCTASGFSFSYRYWMSWVRQAPGKRPEWIACIDTGNGDTYYASRAKGRFTIMKTSSTTVTLQMTSLTVADTATYFCARSDVTLTGYGYGNLWGPGTLVTVSS
VL: DSVMTQTPASVSEPVGGTVTINCQASHNIYNSLAWYQQKPGQPPKLLIYRASTLESGVPSRVKGSGYGTEYTLTISDLECADAATYYCQQYYGGDDDGFGFGGGTEVVVK
On to B10, for which the Response (nm) in test [1] stood at 0.264 nm.

For the origin of these results see patent publication US20260167703A1.
